Measured values reported in paper PMC6490927.

Key:
[1] = target: C30-His6 (short form of SafA made by internal translation of the safA mRNA) (Bacillus subtilis); test: SEC-SAXS; SEC peak fractions of C30; synchrotron SEC-SAXS at BM29 ESRF with in-line HPLC; in the absence of Tgl
[2] = target: C30-His6 (short form of SafA made by internal translation of the safA mRNA) (Bacillus subtilis); test: SEC; purified C30-His6 applied to a size exclusion column at 3.5 mg/ml; eluted as a main single sharp peak; mass by elution position
[3] = target: C30-His6 (short form of SafA made by internal translation of the safA mRNA) (Bacillus subtilis); test: SDS-PAGE of the purified protein (species resistant to denaturation); purified C30 without Tgl or at time 0 of the cross-linking assays; 37°C, Tris-HCl 0.1 M, pH 8.0; 10% SDS-PAGE, Coomassie

stoichiometry N [1]: 6
stoichiometry N [2]: 6
stoichiometry N [3]: 2
Substance: C30-His6 (short form of SafA made by internal translation of the safA mRNA) (natural protein)
